Measured values as given in patent publication EP3088890B1 (Chugai Seiyaku Kabushiki Kaisha, dated 2020).

Key:
[1] = biological target: T1, AW5, C-terminally His-tagged recombinant product of positions 1 to 357 of GPC3 (human, UniProt P51654 25-357); experiment: Western blot analysis, CHO cell pellets
T1 construct: Expressed in CHO cells, cell pellets used in Western blot; The range is as printed and starts at position 1; also called AW5 (1-357); not shown: C-terminal His tag

[2] = biological target: T2, GPC3 peptide 321-350 (SEQ ID NO: 17) (human); experiment: peptide ELISA, peptide on plate, antibody at 2 µg/mL
T2 construct: Synthetic 30-residue peptide of GPC3
T2 peptide: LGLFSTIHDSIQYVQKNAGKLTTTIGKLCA

[3] = biological target: T3, AW2, C-terminally His-tagged recombinant product of positions 1 to 196 of GPC3 (human, UniProt P51654 25-196); experiment: Western blot, pellets of CHO cells expressing the product
T3 construct: Expressed in CHO cells, cell pellets used in Western blot; The range is as printed and starts at position 1; also called AW2 (1-196); not shown: C-terminal His tag

[4] = biological target: T4, AW3, C-terminally His-tagged recombinant product of positions 1 to 218 of GPC3 (human, UniProt P51654 25-218); experiment: as above
T4 construct: Expressed in CHO cells, cell pellets used in Western blot; The range is as printed and starts at position 1; not shown: C-terminal His tag

[5] = biological target: GPC3 core (sGPC3-His) protein (human) (UniProt P51654); experiment: ELISA on plate-bound sGPC3; biotin-labeled GT30, no unlabeled antibody
[6] = biological target: GPC3 core (sGPC3-His) protein (human) (UniProt P51654); experiment: competition ELISA on plate-bound sGPC3; unlabeled GT30 (100-fold) against competitor biotin-labeled GT114
[7] = biological target: GPC3 core (sGPC3-His) protein (human) (UniProt P51654); experiment: competition ELISA on plate-bound sGPC3; unlabeled GT30 (100-fold) against competitor biotin-labeled GT165
[8] = biological target: GPC3 core (sGPC3-His) protein (human) (UniProt P51654); experiment: competition ELISA on plate-bound sGPC3; unlabeled GT30 (100-fold) against competitor biotin-labeled GT607
[9] = biological target: GPC3 core (sGPC3-His) protein (human) (UniProt P51654); experiment: competition ELISA on plate-bound sGPC3; unlabeled GT30 (100-fold) inhibits competitor biotin-labeled GT30
[10] = biological target: GPC3 core (sGPC3-His) protein (human) (UniProt P51654); experiment: competition ELISA on plate-bound sGPC3; unlabeled GT30 (100-fold) against competitor biotin-labeled GT30; signal of the labeled antibody
[11] = biological target: GPC3 core (sGPC3-His) protein (human) (UniProt P51654); experiment: competition ELISA on plate-bound sGPC3; unlabeled GT30 (100-fold) against competitor biotin-labeled GT114; signal of the labeled antibody
[12] = biological target: GPC3 core (sGPC3-His) protein (human) (UniProt P51654); experiment: competition ELISA on plate-bound sGPC3; unlabeled GT30 (100-fold) against competitor biotin-labeled GT165; signal of the labeled antibody
[13] = biological target: GPC3 core (sGPC3-His) protein (human) (UniProt P51654); experiment: competition ELISA on plate-bound sGPC3; unlabeled GT30 (100-fold) against competitor biotin-labeled GT607; signal of the labeled antibody

GPC3 core (sGPC3-His) protein (human), sequence (P51654 25-563 S495A/S509A): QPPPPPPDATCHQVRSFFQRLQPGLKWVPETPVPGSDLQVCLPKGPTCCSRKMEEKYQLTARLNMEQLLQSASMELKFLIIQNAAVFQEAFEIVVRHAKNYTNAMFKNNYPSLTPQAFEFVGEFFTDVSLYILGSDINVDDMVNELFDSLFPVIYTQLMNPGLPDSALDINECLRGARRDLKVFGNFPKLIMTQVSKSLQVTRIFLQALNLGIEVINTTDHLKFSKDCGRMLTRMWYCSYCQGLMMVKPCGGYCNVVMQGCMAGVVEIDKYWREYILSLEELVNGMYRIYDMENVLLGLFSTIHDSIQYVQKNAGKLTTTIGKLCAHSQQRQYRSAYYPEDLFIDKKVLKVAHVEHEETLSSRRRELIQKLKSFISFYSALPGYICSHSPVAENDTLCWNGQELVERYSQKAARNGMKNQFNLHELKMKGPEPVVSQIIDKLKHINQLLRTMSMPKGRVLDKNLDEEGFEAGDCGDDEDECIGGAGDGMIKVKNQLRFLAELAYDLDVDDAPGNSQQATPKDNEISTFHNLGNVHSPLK
T3 sequence (P51654 25-196): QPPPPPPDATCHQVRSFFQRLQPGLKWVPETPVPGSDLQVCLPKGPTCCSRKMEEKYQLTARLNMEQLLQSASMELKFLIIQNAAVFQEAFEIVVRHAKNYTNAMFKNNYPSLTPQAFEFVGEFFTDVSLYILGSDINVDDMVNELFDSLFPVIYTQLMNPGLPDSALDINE
T1 sequence (P51654 25-357): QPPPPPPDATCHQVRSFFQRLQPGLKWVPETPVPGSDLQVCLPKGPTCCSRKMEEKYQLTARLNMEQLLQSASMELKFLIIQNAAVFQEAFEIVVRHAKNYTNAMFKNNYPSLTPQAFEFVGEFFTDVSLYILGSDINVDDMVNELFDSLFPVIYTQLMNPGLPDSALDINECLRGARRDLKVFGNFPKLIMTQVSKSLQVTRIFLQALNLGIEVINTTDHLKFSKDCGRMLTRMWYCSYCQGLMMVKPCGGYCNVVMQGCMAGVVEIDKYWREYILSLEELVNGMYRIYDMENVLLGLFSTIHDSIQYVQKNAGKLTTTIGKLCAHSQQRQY
T4 sequence (P51654 25-218): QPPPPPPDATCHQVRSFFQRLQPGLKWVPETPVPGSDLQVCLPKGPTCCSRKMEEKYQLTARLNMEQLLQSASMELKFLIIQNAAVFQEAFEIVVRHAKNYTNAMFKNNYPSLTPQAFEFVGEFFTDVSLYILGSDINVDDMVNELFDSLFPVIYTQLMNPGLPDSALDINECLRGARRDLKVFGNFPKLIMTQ

B1: GT30 antibody (antibody, IgG1, V domains shown)
VH: QVQLQQSGAELARPGASVKLSCRASGYTFTSYGISWMMQRTGQGLEWIGEIYPRSGITYYNEKFKGKATLTADKSSSTAYMQLSSLTSEDSAVYFCARDVSDGYLFPYWGQGTLVTVSA
VL: DIQMTQSPASLSASVGETVTITCRTSENIYSYLAWYQQKQGKSPQLLVYNAKTLPEGVPSRFSGSGSGTQFSLKINSLQPEDFGSYYCQHHYGTPPTFGGGTKLEIKR
B1: binds [1]; binds [2]; no binding [3]. The binding result [4] was “no binding”, the O.D. 450 [5] was 1.84 O.D. 450 and the Inhibitory effect (%) [6] was less than 0%. It also gave an Inhibitory effect (%) [7] of 94%, an Inhibitory effect (%) [8] of 3% and an Inhibitory effect (%) [9] of 96%. The O.D. 450 [10] was 0.07 O.D. 450, the O.D. 450 [11] was 2.31 O.D. 450 and the O.D. 450 [12] was 0.098 O.D. 450. The O.D. 450 [13] was 2.12 O.D. 450.
